# Test system: Escherichia coli TOP10
# Test: shrunken log2 fold change of peptide-encoding DNA abundance (4.5 h post-induction vs induction); higher = less antimicrobial activity (less host growth inhibition)
# Details: time post-induction: 4.5 h; library: site-saturation at positions 5, 18, 19, 20
# 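Also: peptides expressed intracellularly from a pBAD plasmid library in pooled LB shake-flask culture, induced with 0.3% L-arabinose, DNA abundance read by NGS, three biological replicates, DESeq2 with apeglm shrinkage.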
row,Sequence,shrunken log2 fold change
1,RRIRIRPPRLPRPRPRPQAWPRP,0.386
2,RRIRERPPRLPRPRPRPMMAPRP,-0.128
3,RRIRWRPPRLPRPRPRPLYAPRP,0.188
4,RRIRQRPPRLPRPRPRPDSSPRP,0.00797
5,RRIRTRPPRLPRPRPRPVLGPRP,0.304
6,RRIRDRPPRLPRPRPRPWTMPRP,-0.0209
7,RRIRMRPPRLPRPRPRPKKKPRP,1.61
8,RRIRGRPPRLPRPRPRPWDAPRP,0.142
9,RRIRHRPPRLPRPRPRPLETPRP,-0.47
10,RRIRKRPPRLPRPRPRPEIEPRP,2.58
11,RRIRWRPPRLPRPRPRPELCPRP,0.579
12,RRIRHRPPRLPRPRPRPADNPRP,-0.306
13,RRIRMRPPRLPRPRPRPMRGPRP,1.53
14,RRIRHRPPRLPRPRPRPWMDPRP,0.113
15,RRIRYRPPRLPRPRPRPKGMPRP,-0.111
16,RRIRARPPRLPRPRPRPWYCPRP,-0.306
17,RRIRMRPPRLPRPRPRPSHKPRP,-0.183
18,RRIRMRPPRLPRPRPRPFGRPRP,-0.00674
19,RRIRQRPPRLPRPRPRPRYNPRP,-0.527
20,RRIRRRPPRLPRPRPRPIEPPRP,-0.015
21,RRIRKRPPRLPRPRPRPGVNPRP,0.213
22,RRIRDRPPRLPRPRPRPIGDPRP,-0.00843
23,RRIRKRPPRLPRPRPRPTFNPRP,-0.344
24,RRIRVRPPRLPRPRPRPTVVPRP,0.0028
25,RRIRERPPRLPRPRPRPWHMPRP,-0.0037

row,Sequence,shrunken log2 fold change
1,RRIRWRPPRLPRPRPRPCMIPRP,-0.471
2,RRIRLRPPRLPRPRPRPEEWPRP,0.119
3,RRIRTRPPRLPRPRPRPMFPPRP,0.0617
4,RRIRPRPPRLPRPRPRPEIQPRP,0.07
5,RRIRDRPPRLPRPRPRPEMWPRP,2.04
6,RRIRSRPPRLPRPRPRPWVKPRP,0.194
7,RRIRTRPPRLPRPRPRPGNIPRP,-0.0496
8,RRIRDRPPRLPRPRPRPSLAPRP,0.474
9,RRIRTRPPRLPRPRPRPHHHPRP,-0.924
10,RRIRTRPPRLPRPRPRPNPKPRP,0.27
11,RRIRLRPPRLPRPRPRPPPIPRP,0.935
12,RRIRYRPPRLPRPRPRPHEPPRP,-0.133
13,RRIRPRPPRLPRPRPRPTKIPRP,-0.0764
14,RRIRVRPPRLPRPRPRPNDKPRP,-0.351
15,RRIRIRPPRLPRPRPRPYLVPRP,-0.289
16,RRIRLRPPRLPRPRPRPHCMPRP,-0.283
17,RRIRWRPPRLPRPRPRPNECPRP,-0.437
18,RRIRFRPPRLPRPRPRPPEDPRP,0.357
19,RRIRNRPPRLPRPRPRPFRFPRP,-0.199
20,RRIRKRPPRLPRPRPRPINWPRP,0.0577
21,RRIRQRPPRLPRPRPRPMCCPRP,0.0301
22,RRIRQRPPRLPRPRPRPVMLPRP,-0.124
23,RRIRCRPPRLPRPRPRPYQFPRP,-0.0218
24,RRIRYRPPRLPRPRPRPSWDPRP,-0.429
25,RRIRHRPPRLPRPRPRPTVAPRP,0.325

row,Sequence,shrunken log2 fold change
1,RRIRRRPPRLPRPRPRPTNMPRP,-0.0659
2,RRIRKRPPRLPRPRPRPHMWPRP,-0.174
3,RRIRRRPPRLPRPRPRPRESPRP,0.59
4,RRIRHRPPRLPRPRPRPLWIPRP,-0.505
5,RRIRWRPPRLPRPRPRPLCRPRP,0.17
6,RRIRQRPPRLPRPRPRPPFWPRP,0.504
7,RRIRMRPPRLPRPRPRPMPDPRP,0.716
8,RRIRWRPPRLPRPRPRPWPDPRP,0.0849
9,RRIRERPPRLPRPRPRPMKVPRP,-0.0915
10,RRIRLRPPRLPRPRPRPCKMPRP,-0.503
11,RRIRVRPPRLPRPRPRPQNEPRP,-0.303
12,RRIRMRPPRLPRPRPRPRMLPRP,0.465
13,RRIRYRPPRLPRPRPRPYTEPRP,0.034
14,RRIRRRPPRLPRPRPRPYGTPRP,-0.231
15,RRIRARPPRLPRPRPRPGHHPRP,0.127
16,RRIRMRPPRLPRPRPRPFVNPRP,1.6
17,RRIRPRPPRLPRPRPRPCPIPRP,0.082
18,RRIRWRPPRLPRPRPRPWSIPRP,-0.46
19,RRIRGRPPRLPRPRPRPMADPRP,0.173
20,RRIRFRPPRLPRPRPRPFTWPRP,-0.816
21,RRIRCRPPRLPRPRPRPQVRPRP,-0.236
22,RRIRGRPPRLPRPRPRPICWPRP,0.714
23,RRIRRRPPRLPRPRPRPYLQPRP,-0.548
24,RRIRPRPPRLPRPRPRPHQAPRP,0.0618
25,RRIRLRPPRLPRPRPRPPSRPRP,0.175

row,Sequence,shrunken log2 fold change
1,RRIRQRPPRLPRPRPRPARIPRP,-0.0224
2,RRIRLRPPRLPRPRPRPYTKPRP,0.119
3,RRIRSRPPRLPRPRPRPITIPRP,-0.324
4,RRIRCRPPRLPRPRPRPADHPRP,0.0117
5,RRIRMRPPRLPRPRPRPIPMPRP,0.414
6,RRIRNRPPRLPRPRPRPSFTPRP,-0.255
7,RRIRSRPPRLPRPRPRPGLIPRP,0.142
8,RRIRSRPPRLPRPRPRPHTIPRP,-0.87
9,RRIRRRPPRLPRPRPRPAFNPRP,0.201
10,RRIRMRPPRLPRPRPRPRKPPRP,0.915
11,RRIRLRPPRLPRPRPRPYQNPRP,-0.0985
12,RRIRTRPPRLPRPRPRPQDNPRP,-0.669
13,RRIRHRPPRLPRPRPRPWRCPRP,-0.221
14,RRIRIRPPRLPRPRPRPFMKPRP,-0.127
15,RRIRERPPRLPRPRPRPGLHPRP,-0.124
16,RRIRSRPPRLPRPRPRPMNVPRP,-0.0106
17,RRIRDRPPRLPRPRPRPTEDPRP,-0.0699
18,RRIRQRPPRLPRPRPRPSPCPRP,-0.0648
19,RRIRERPPRLPRPRPRPKMYPRP,-0.898
20,RRIRDRPPRLPRPRPRPGGMPRP,0.0874
21,RRIRDRPPRLPRPRPRPANIPRP,-0.114
22,RRIRRRPPRLPRPRPRPTVPPRP,0.0694
23,RRIRYRPPRLPRPRPRPHYHPRP,-0.241
24,RRIRWRPPRLPRPRPRPSNWPRP,0.135
25,RRIRNRPPRLPRPRPRPDENPRP,0.00254

row,Sequence,shrunken log2 fold change
1,RRIRKRPPRLPRPRPRPPGWPRP,0.675
2,RRIRLRPPRLPRPRPRPRDEPRP,0.162
3,RRIRFRPPRLPRPRPRPVRAPRP,0.495
4,RRIRLRPPRLPRPRPRPKTLPRP,-0.0582
5,RRIRGRPPRLPRPRPRPVLIPRP,0.223
6,RRIRLRPPRLPRPRPRPTPYPRP,-0.00235
7,RRIRYRPPRLPRPRPRPHIFPRP,-0.255
8,RRIRKRPPRLPRPRPRPIGHPRP,0.0336
9,RRIRHRPPRLPRPRPRPEFVPRP,0.02
10,RRIRWRPPRLPRPRPRPSLPPRP,-0.133
11,RRIRRRPPRLPRPRPRPDDTPRP,0.139
12,RRIRHRPPRLPRPRPRPFGIPRP,-0.0887
13,RRIRGRPPRLPRPRPRPNKQPRP,0.326
14,RRIRIRPPRLPRPRPRPVMSPRP,-0.0169
15,RRIRVRPPRLPRPRPRPHYLPRP,0.00696
16,RRIRARPPRLPRPRPRPDEAPRP,1.12
17,RRIRVRPPRLPRPRPRPRWQPRP,0.0341
18,RRIRRRPPRLPRPRPRPEIEPRP,0.216
19,RRIRTRPPRLPRPRPRPFWMPRP,-0.111
20,RRIRYRPPRLPRPRPRPLDHPRP,-0.119
21,RRIRIRPPRLPRPRPRPEQKPRP,2.45
22,RRIRSRPPRLPRPRPRPAHIPRP,-0.0188
23,RRIRVRPPRLPRPRPRPNYKPRP,-0.509
24,RRIRYRPPRLPRPRPRPFGVPRP,-0.306
25,RRIRYRPPRLPRPRPRPYAKPRP,-1.76

row,Sequence,shrunken log2 fold change
1,RRIRHRPPRLPRPRPRPNKMPRP,-0.0582
2,RRIRNRPPRLPRPRPRPLMKPRP,-0.431
3,RRIRRRPPRLPRPRPRPTRQPRP,1.33
4,RRIRDRPPRLPRPRPRPMLMPRP,0.348
5,RRIRDRPPRLPRPRPRPCLIPRP,0.0225
6,RRIRPRPPRLPRPRPRPKDHPRP,0.0743
7,RRIRGRPPRLPRPRPRPLHHPRP,0.452
8,RRIRMRPPRLPRPRPRPSWYPRP,-0.506
9,RRIRFRPPRLPRPRPRPKYLPRP,-0.451
10,RRIRYRPPRLPRPRPRPVLLPRP,-0.109
11,RRIRARPPRLPRPRPRPIADPRP,0.394
12,RRIRGRPPRLPRPRPRPTTPPRP,0.681
13,RRIRQRPPRLPRPRPRPSHIPRP,-0.0881
14,RRIRPRPPRLPRPRPRPTAAPRP,0.227
15,RRIRIRPPRLPRPRPRPWVDPRP,0.0772
16,RRIRKRPPRLPRPRPRPNMWPRP,-0.109
17,RRIRKRPPRLPRPRPRPNNMPRP,-0.304
18,RRIRWRPPRLPRPRPRPKGEPRP,0.74
19,RRIRVRPPRLPRPRPRPHCGPRP,-0.309
20,RRIRFRPPRLPRPRPRPRRQPRP,0.108
21,RRIRWRPPRLPRPRPRPTQQPRP,-0.0891
22,RRIRCRPPRLPRPRPRPVWAPRP,0.351
23,RRIRHRPPRLPRPRPRPEHAPRP,-0.0423
24,RRIRMRPPRLPRPRPRPPDMPRP,1.06
25,RRIRKRPPRLPRPRPRPVKHPRP,-0.0571
